According to patent US20170315124A1 (ATTOGEN BIOMEDICAL SUZHOU, published 2017):

Legend:
[1] = biological target: T1, His-HPV16 E7 recombinant fusion protein (HPV16, UniProt P03129 2-98); assay: indirect ELISA, method of Beatty et al.; His-HPV16 E7 coated at 4 concentrations, 7B6 in 8 two-fold dilutions from 2 µg/ml; mean of 6 K values
T1 construct: also called recombinant protein HPV16 E7; not shown: His tag
T1 sequence: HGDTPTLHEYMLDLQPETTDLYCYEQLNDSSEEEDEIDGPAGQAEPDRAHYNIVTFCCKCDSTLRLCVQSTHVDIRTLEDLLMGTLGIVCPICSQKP

polypeptide HPV16 E7-1 = biological target: T2, polypeptide HPV16 E7-1 (HPV16); assay: indirect ELISA on coated peptide
T2 peptide: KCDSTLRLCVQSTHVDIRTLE

[2] = biological target: T3, GST-HPV16 L2 fusion protein (HPV16, UniProt P03107 1-473); assay: indirect ELISA on coated antigen
T3 construct: Specificity control antigen in the ELISA; also called recombinant protein HPV16 L2; not shown: glutathione S-transferase (GST) fusion partner
T3 sequence: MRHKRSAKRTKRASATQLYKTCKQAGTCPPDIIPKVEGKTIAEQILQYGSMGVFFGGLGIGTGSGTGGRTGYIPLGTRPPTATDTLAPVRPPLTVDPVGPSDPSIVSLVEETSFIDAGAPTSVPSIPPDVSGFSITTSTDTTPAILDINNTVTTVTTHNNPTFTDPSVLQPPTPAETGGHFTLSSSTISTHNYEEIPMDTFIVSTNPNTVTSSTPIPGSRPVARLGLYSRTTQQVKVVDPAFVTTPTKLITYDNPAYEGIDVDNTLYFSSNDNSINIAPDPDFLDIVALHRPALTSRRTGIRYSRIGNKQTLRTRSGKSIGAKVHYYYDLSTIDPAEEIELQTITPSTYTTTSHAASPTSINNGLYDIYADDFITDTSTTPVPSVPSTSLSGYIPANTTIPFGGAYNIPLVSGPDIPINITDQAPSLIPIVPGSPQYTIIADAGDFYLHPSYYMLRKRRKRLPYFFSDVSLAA

[3] = biological target: T1, His-HPV16 E7 recombinant fusion protein; assay: indirect ELISA, method of Beatty et al.; reference 1H11
[4] = biological target: T1, His-HPV16 E7 recombinant fusion protein; assay: indirect ELISA, method of Beatty et al.; reference 2G7
Method: There were total 8 gradients and then ELISA test was conducted. The obtained values were plot into Kaff=(n−1)/2(n [Ab′]−[Ab]) to obtain the affinity constant. […] It means using the antibody concentration corresponding to half of the highest OD value (50% OD) on the curve through graphing method. In this equation, n=Ag/Ag′. Then each two of them were compared, when n=4, three K values could be obtained, when n=16, two K values could be obtained and when n=64, one K values could be obtained then calculate the average of these six values as the result.

B1: anti-HPV16 E7 monoclonal antibody 7B6 (antibody, V domains shown)
VH: VKLQESGPELVKPGASMKISCKASGYSFTGSTMNWVKQSHGKNLEWIGLIDPYNGVIRYNQKFKGRATLTIDKSSSTAYMELLSLTSDDSAVYYCARKLRYWGQGTTLTVSS
VL: ATQSPSSLNVSPGEKVTMSCKSSQSLLNSGNQRNYLAWYQQKPGQPPKLLIYGASTRESGVPDRFTGSGSGTDFTLTISSVQAEDLAVYYCQNDLSYPLTFGAGTKLELK
notes: also called mAb anti-HPV16E7 7B6
[1]
  Kd: 0.64 nM
Polypeptide HPV16 E7-1
  binding result: no binding
[2]
  binding result: no binding (tested: 7B6 1 µg/ml; antigen coated at 2 µg/ml)
[3]
  fold of binding affinity over 1H11: 5 fold
[4]
  fold of binding affinity over 2G7: 2 fold
